PMC5575113 (2017)
Substitutions are numbered along the chain they refer to.

B1: GroES^7I25A1,2 (other)
chain: MNIRPLHDRVIVKRKEVETKSAGGAVLTGSAAAKSTRGEVLAVGNGRILENGEVKPLDVKVGDIVIFNDGYGVKSEKIDNEEVLIMSESDILAIVEAMNIRPLHDRVIVKRKEVETKSAGGAVLTGSAAAKSTRGEVLAVGNGRILENGEVKPLDVKVGDIVIFNDGYGVKSEKIDNEEVLIMSESDILAIVEAMNIRPLHDRVIVKRKEVETKSAGGIVLTGSAAAKSTRGEVLAVGNGRILENGEVKPLDVKVGDIVIFNDGYGVKSEKIDNEEVLIMSESDILAIVEAMNIRPLHDRVIVKRKEVETKSAGGIVLTGSAAAKSTRGEVLAVGNGRILENGEVKPLDVKVGDIVIFNDGYGVKSEKIDNEEVLIMSESDILAIVEAMNIRPLHDRVIVKRKEVETKSAGGIVLTGSAAAKSTRGEVLAVGNGRILENGEVKPLDVKVGDIVIFNDGYGVKSEKIDNEEVLIMSESDILAIVEAMNIRPLHDRVIVKRKEVETKSAGGIVLTGSAAAKSTRGEVLAVGNGRILENGEVKPLDVKVGDIVIFNDGYGVKSEKIDNEEVLIMSESDILAIVEAMNIRPLHDRVIVKRKEVETKSAGGIVLTGSAAAKSTRGEVLAVGNGRILENGEVKPLDVKVGDIVIFNDGYGVKSEKIDNEEVLIMSESDILAIVEA
modifications: DyLight 650 NHS ester on amines (for MST)
B2: GroES^7I25A1,4 (other)
chain: B1 chain with A122I, I316A
modifications: DyLight 650 NHS ester on amines (for MST)
B3: GroES^7I25D1 (other)
chain: B1 chain with A25D, A122I
modifications: DyLight 650 NHS ester on amines (for MST)
B4: GroES^7I25D1,2 (other)
chain: B1 chain with A25D, A122D
modifications: DyLight 650 NHS ester on amines (for MST)
B5: GroES^7 (other)
chain: B1 chain with A25I, A122I
modifications: DyLight 650 NHS ester on amines (for MST)
B6: GroES^7I25A1,3 (other)
chain: B1 chain with A122I, I219A
modifications: DyLight 650 NHS ester on amines (for MST)
B7: GroES^7I25D1,4 (other)
chain: B1 chain with A25D, A122I, I316D
modifications: DyLight 650 NHS ester on amines (for MST)
B8: GroES^7I25D1,3 (other)
chain: B1 chain with A25D, A122I, I219D
modifications: DyLight 650 NHS ester on amines (for MST)
B9: GroES^7I25D_(1,4,7) (other)
chain: B1 chain with A25D, A122I, I316D, I607D
modifications: DyLight 650 NHS ester on amines (for MST)
B10: GroES^7I25A1 (other)
chain: B1 chain with A122I
modifications: DyLight 650 NHS ester on amines (for MST)
B11: GroES^7I25A_(1,4,7) (other)
chain: B1 chain with A122I, I316A, I607A
modifications: DyLight 650 NHS ester on amines (for MST)

These binders were tested against GroEL^SR (GroEL R452A/E461A/S463A/V464A) (E. coli, UniProt P0A6F5 1-548, R452A | E461A | S463A | V464A) (assay: MST).
In the case of B1, the Kd is reported as 35 nM. With B2 the Kd was 51.3 nM. B3 showed a Kd of 25.6 nM. For B4, the Kd was 38.7 nM. Work on B5 yielded a Kd of 4.54 nM. Binder B6 has a Kd of 39.7 nM. Binder B7 has a Kd of 73.1 nM. With B8 the Kd was 71.9 nM.

These binders were tested against GroEL (E. coli, UniProt P0A6F5 1-548) (assay: MST).
B9 was tested, and the Kd was 40 nM. B1 showed a Kd of 8.97 nM. B2 was tested, and the Kd was 8.99 nM. With B3 the Kd was 4.07 nM. With B10 the Kd was 4.6 nM. Binder B4 has a Kd of 9.24 nM. Binder B5 has a Kd of 3.05 nM. B6 was tested, and the Kd was 10 nM. With B7 the Kd was 9.58 nM. Binder B11 has a Kd of 77.2 nM. In the case of B8, the Kd is reported as 13.3 nM.
